Measurements taken from patent US20210309754A1 (JCR PHARMACEUTICALS, published 2021).

T1: recombinant monkey TfR (r monkey TfR: Sino Biological Inc.), cynomolgus monkey TfR extracellular region with … (cynomolgus monkey (Macaca fascicularis), UniProt Q5RDH6 89-760 (Pongo abelii entry))
T1 construct: Bought (Sino Biological); also called r monkey TfR-ECD (Histag); not shown: histidine tag attached to the N-terminus
T1 chain: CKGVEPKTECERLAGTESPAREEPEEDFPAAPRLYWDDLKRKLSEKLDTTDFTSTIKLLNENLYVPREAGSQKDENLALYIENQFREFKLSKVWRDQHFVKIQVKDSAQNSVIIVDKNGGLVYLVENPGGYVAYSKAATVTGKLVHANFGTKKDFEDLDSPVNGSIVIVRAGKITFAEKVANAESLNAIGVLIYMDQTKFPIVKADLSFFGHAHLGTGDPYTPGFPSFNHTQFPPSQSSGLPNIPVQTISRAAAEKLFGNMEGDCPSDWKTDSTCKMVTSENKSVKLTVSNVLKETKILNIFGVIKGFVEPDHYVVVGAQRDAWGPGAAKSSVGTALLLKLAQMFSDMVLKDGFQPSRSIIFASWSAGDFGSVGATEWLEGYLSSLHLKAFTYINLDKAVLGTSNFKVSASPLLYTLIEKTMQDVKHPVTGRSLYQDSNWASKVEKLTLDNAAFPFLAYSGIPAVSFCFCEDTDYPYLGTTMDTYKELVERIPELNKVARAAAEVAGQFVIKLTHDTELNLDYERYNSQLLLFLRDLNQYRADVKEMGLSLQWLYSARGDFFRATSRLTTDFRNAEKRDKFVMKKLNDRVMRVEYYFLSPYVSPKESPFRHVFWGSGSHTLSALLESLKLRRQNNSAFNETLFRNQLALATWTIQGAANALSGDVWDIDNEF


Target: T1, recombinant monkey TfR (r monkey TfR: …)
Experiment: BLI, Octet RED96, His-TfR ECD on Ni-NTA sensor
Procedure: By measuring the variations of this shift between the interfering waves, determination of the number of the molecules bound to the layer of the biomolecules immobilized to the sensor tip surface and kinetic analysis of it can be performed in real time. The measurement was performed according generally to the operating manual attached to Octet RED96. As a human TfR, a recombinant human TfR (r human TfR: Sino Biological Inc.) was used, which had the amino acid sequence of the hTfR extracellular region, i.e., the cysteine residue at the position 89th from the N-terminal side to the phenylalanine at the C-terminus, of the amino acid sequence set forth as SEQ ID NO:1, with a histidine tag attached to the N-terminus. As a monkey TfR, a recombinant monkey TfR (r monkey TfR: Sino Biological Inc.) was used, which had the amino acid sequence of the cynomolgus monkey TfR extracellular region, i.e., the cysteine residue at the position 89th from the N-terminal side to the phenylalanine at the C-terminus, of the amino acid sequence set forth as SEQ ID NO:2, with a histidine tag attached to the N-terminus. […]

| Kd [nM] | koff [s⁻¹] | Binder |
| --- | --- | --- |
| 0.477 | – | anti-hTfR antibody No. 6 (antibody, V domains shown, Mouse monoclonal antibody from a hybridoma, purified on Protein G; also called mouse anti-hTfR antibody No. 6; antibody of Clone 6 line) VH: EVQLQESGPGLVAPSQSLSITCSVSGFSLSTYGVYWVRQPPGKGLEWLGIIWGDGSTNYHSALISRLTISKDNSKSQVFLKLNSLQTADTATYYCAKPDDVWGAGTTVTVSS VL: DIVLTQTPSSLSASLGERVSLTCRASQEISGYLSWLQQKPDGTIKRLIYAASTLDSGVPKRFSGSRSGSDYSLTISSLESEDFADYYCLQYSSYPRTFGGGTKLEIK |
| – | 1.75e-05 | anti-hTfR antibody No. 2 (antibody, V domains shown, Mouse monoclonal antibody from a hybridoma, purified on Protein G; also called mouse anti-hTfR antibody No. 2; antibody of Clone 2 line) VH: EVQLQESGAELVRPGVSVKISCKGSGYTFTDYVMHWVRQSHAKSLEWIGVISTYYGHGSYNQRFKGKATMTVDKSSSTAYLELVRLTSEDSAIYYCVRGGYGSSSLAGNFDVWGAGTTVTVSS VL: DIVLTQSPATLSVTPGDSVSLSCRASQSISNNLQWYQQKSHESPRLLIKYASQSISGIPSRFSGSGSGTDFTLSINSVETEDFGMYFCQQSNSWPRTFGAGTKLELKR |
